Test results from PMC11383277 (bioRxiv, 2024).

Molecular target: human NaV1.8 alpha-subunit (human, UniProt Q9Y5Y9 1-1956, M1713V)
Experiment: cryo-EM structure

ECRYWLGGCSAGQTCCKHLVCSRRHGWCVWDGTFS [Protoxin-I]: binds.
